Laboratory results published in article PMC5458078, “Global mapping of CARM1 substrates defines enzyme specificity and substrate recognition” (Nature Communications, 2017).

Legend:
[1] = test system: BAF155, MED12, PABP1, NCOA3 and TET2; experiment: Co-immunoprecipitation of BAF155, MED12, PABP1, NCOA3 and TET2 with FLAG-tagged CARM1, western blot; format: cell-based; settings: FLAG-tagged construct transiently transfected in HEK293T CARM1 KO cells; anti-FLAG IP
Source text: The structure of the N-terminal domain of CARM1 (residues 28–140) resembles those of the EVH1 domains, a subfamily of PH domains that bind proline-rich sequences. With our discovery that CARM1 substrates contain proline-rich motifs, we posited that the protein's N-terminal domain may be required for substrate recognition. To test this hypothesis, we generated three CARM1 constructs: one full-length (CARM1 FL) and two N-terminal truncations CARM1 28–608 and CARM1 140–608 (Fig. 3a). […] We transiently transfected the three FLAG-tagged CARM1 fusion constructs in HEK293T CARM1 KO cells. CARM1 was immunoprecipitated from all three cell lines using anti-FLAG M2 resin, and four known CARM1 substrates/interactors (that is, BAF155 (ref. [20]), MED12 (ref. [30]), PABP1 (ref. [36]) and NCOA3 (ref. [19])) and newly identified TET2 were detected by western blotting. […] To globally assess the magnitude of reduction in CARM1–substrate interactions induced by the loss of the EVH1 domain, we visualized overall protein changes in CARM1 immunoprecipitates by western blotting using the ADMA antibody (Fig. 3c).
(§1) Cells were collected by trypsinization, washed with Dulbecco's phosphate buffer saline (Life Technologies, Carlsbad, CA) and lysed by suspension in lysis buffer (50 mM Tris-HCl pH 8.0, 150 mM NaCl, 10% glycerol, 0.5% Triton X-100 and 1 × protease inhibitor cocktail (Sigma-Aldrich)). After brief sonication followed by centrifugation, total protein was quantified using the BioRad Protein Assay (BioRad, Hercules, CA), and 20 μg protein was resolved by SDS–PAGE. Proteins were transferred to a nitrocellulose membrane for 1.5 h at 350 mA. Membranes were blocked with 5% nonfat milk at room temperature for 1 h and incubated overnight with diluted primary antibody at 4 °C. Membranes were then washed and incubated with HRP-conjugated secondary antibody for 1 h at room temperature. Signal was visualized by enhanced chemiluminescence reagents (Thermo Scientific, Rockford, IL) and X-ray film exposure followed by scanning and digitalization. […]

[2] = test system: total cell lysates derived from MCF7 CARM1 KO cells; experiment: In vitro methylation of total cell lysates by recombinant CARM1 proteins, autoradiography; format: biochemical, human; settings: 3H-SAM, 1–4 h, 30 °C
Experimental: The FL and N-terminal domain-deleted version of human CARM1 cDNAs, and other PRMT FL cDNAs were cloned into pFN21K Halo Tag CMV Flexi mammalian expression vector (Promega, Madison, WI) using the unique Sgfl and Pmel site[55]. To express the protein, DNA constructs were transiently transfected into HEK293T CARM1 KO cells in 15 cm dishes using transIT-LT1 reagent (Mirus Bio, Madison, WI) according to the manufacturer's protocol. Proteins were allowed to express for 48 h. Cell pellets were then collected and lysed in lysis buffer (50 mM HEPES, pH 7.5, 150 mM NaCl, 0.005% NP-40, 0.5 mM EDTA, supplemented with 1 × protease inhibitor cocktail before use). The cells were sonicated on ice using a Branson Sonifier 450 with a microtip at 35% amplitude (10 s on, 30 s off, 6 cycles). […] The resin was centrifuged at 3,000 r.p.m. for 5 min, and the supernatant containing the cleaved protein was collected and protein concentration was determined using the Bradford assay (Thermo Scientific, Rockford, IL). Protein purity was assessed by running SDS–PAGE and Coomassie Blue staining.
Purified recombinant enzyme and substrates were incubated in methylation buffer (50 mM Tris-HCl, pH 8.0, 100 mM NaCl and 0.5 mM EDTA) for 1–4 h at 30 °C in the presence of 1 μl radioactive S-adenosyl-L-[methyl-^3H] methionine. […] Protein methylation was detected by autoradiography.

MCF7 CARM1 KO cells [3] = experiment: In vivo methylation of BAF155, stable expression, western blot; format: cell-based, human
Source text: We next sought to assess the impact of CARM1 N-terminal deletion in cells stably expressing mutant enzymes. […] To quantify the affected ADMA-containing peptides in MCF7 CARM1 KO and CARM1 140–608 expressing cells, we employed our quantitative MS method (Fig. 1a) using CARM1 28–608 as a reference for normalization (Supplementary Data 4). […] The magnitude of reduction in CARM1 140–608 cells, however, was slightly less than that in the CARM1 KO cells. […] As indicated by R^2 of 0.65, noticeable differences existed between the levels of ADMA-containing peptides in cells expressing the N-terminal truncation of CARM1 and CARM1 28–608 control (Supplementary Fig. 4f).
as §1, with “°C.” for “°C. Membranes were then washed and incubated with HRP-conjugated secondary antibody for 1 h at room temperature. Signal was visualized by enhanced chemiluminescence reagents (Thermo Scientific, Rockford, IL) and X-ray film exposure followed by scanning and digitalization.”

MCF7 CARM1 KO cells [4] = experiment: Quantitative MS of ADMA-containing peptides in MCF7 CARM1 KO cells expressing CARM1 28-608 or CARM1 140-608, and in CARM1 KO; format: cell-based, human; settings: stable CARM1 140–608 in MCF7 CARM1 KO cells; reference CARM1 28–608; three biological replicas

B1: CARM1 140–608: CARM1 140–608 lacks the first 140 residues encompassing the EVH1 domain (protein)
chain: RTEESSAVQYFQFYGYLSQQQNMMQDYVRTGTYQRAILQNHTDFKDKIVLDVGCGSGILSFFAAQAGARKIYAVEASTMAQHAEVLVKSNNLTDRIVVIPGKVEEVSLPEQVDIIISEPMGYMLFNERMLESYLHAKKYLKPSGNMFPTIGDVHLAPFTDEQLYMEQFTKANFWYQPSFHGVDLSALRGAAVDEYFRQPVVDTFDIRILMAKSVKYTVNFLEAKEGDLHRIEIPFKFHMLHSGLVHGLAFWFDVAFIGSIMTVWLSTAPTEPLTHWYQVRCLFQSPLFAKAGDTLSGTCLLIANKRQSYDISIVAQVDQTGSKSSNLLDLKNPFFRYTGTTPSPPPGSHYTSPSENMWNTGSTYNLSSGMAVAGMPTAYDLSSVIASGSSVGHNNLIPLANTGIVNHTHSRMGSIMSTGIVQGSSGAQGSGGGSTSAHYAVNSQFTMGGPAISMASPMSIPTNTMHYGS
modifications: left off: FLAG, end not stated, kept
notes: CARM1 140–608 lacks the first 140 residues encompassing the EVH1 domain
Co-precipitation of BAF155, MED12, PABP1, NCOA3 and TET2 [1]: substantially lower amounts of them were detected | Total protein methylation of cell lysate [2]: substantial reduction of total protein methylation | In vivo methylation of BAF155 (MCF7 CARM1 KO cells [3]): impaired in vivo methylation of BAF155 | Abundance of ADMA-containing peptides (MCF7 CARM1 KO cells [4]): massive reduction in abundances of ADMA-containing peptides
